Target: NS1A(1-73), NS1 protein N-terminal dsRNA-binding domain (Influenza A virus (A/Udorn/72)?, UniProt B4URE2 SEQ:1-73)
Sequence (B4URE2 1-73): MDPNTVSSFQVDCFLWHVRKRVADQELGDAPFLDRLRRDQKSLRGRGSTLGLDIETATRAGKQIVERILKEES

B1: 16-bp dsRNA (RR) (dsRNA)
RNA 1: CCAUCCUCUACAGGCG
RNA 2: CGCCUGUAGAGGAUGG
Kd: 748 nM
